{
  "source": "paper PMC11224109",
  "about": "“Synthesis and preclinical evaluation of novel ^18F-vancomycin-based tracers for the detection of bacterial infections using positron emission tomography” (European Journal of Nuclear Medicine and Molecular Imaging, 2024)",
  "key": {"[1]": {"experiment": "Summary of tracer stability in vitro and in vivo", "settings": "summary table, in vitro and in vivo", "description": "Stability of the tracers was determined in PBS and human plasma. In a typical experiment, 1 MBq of radioactivity (10–20 µL) was added to 250 µL of PBS or human plasma. Samples were heated to 37 °C on a shaker and sampled at fixed intervals. For samples containing human plasma, protein was precipitated using two volumes of cold MeCN. Precipitated samples were briefly centrifuged to pellet the insoluble fraction and supernatant was used for stability assessment. Supernatant (1 µL) was loaded on a TLC plate and imaged using BAS-IP MS 2025 E plates (Fujifilm, Tokyo, Japan) on an Amersham Typhoon Biomolecular Imager (GE Healthcare Bio-Sciences Corp, Chicago, United States) equipped with a phosphor imaging stage. [^18F]BODIPY-FL-vancomycin has an Rf of 0.68 (petroleum ether/MeOH 3:1), [^18F]FB-vancomycin has an Rf of 0.66 (2 M NaOAc/MeOH 5:1). For [^18F]PQ-VE1-vancomycin, conditions described in [44] were used."}, "[2]": {"experiment": "Distribution coefficient LogD7.4, shake-flask n-octanol/PBS", "format": "physicochemical", "settings": "shake-flask n-octanol/PBS pH 7.4, 500 µL each, 10 µL tracer in saline, vortexed 30 s, shaken 15 min, gamma counter, mean ± SD", "description": "The tracer distribution coefficient in n-octanol/PBS pH 7.4 (LogD7.4) was determined using a shake-flask methodology. To an Eppendorf tube containing 500 µL n-octanol and 500 µL PBS, 10 µL tracer solution in saline was added. The vial was vortexed for 30 s and placed on an Eppendorf shaker for 15 min. After incubation, layers were separated by centrifugation (1 min at 10.000 rpm) and a fraction of the n-octanol layer was pipetted off. To minimize contamination of the bottom layer with the n-octanol layer, the bottom PBS layer was collected by puncturing the bottom of the Eppendorf tube with a 22G needle and aspirating a fraction of the PBS layer. Collected fractions were weighted to correct for collected volume and subsequently measured on a calibrated gamma counter and corrected for decay. LogD7.4 was calculated as [drawing 1] ."}, "[3]": {"experiment": "Biodistribution in vivo and PET in healthy mice", "settings": "for tissue uptake at 0.5 h / tissue uptake at 1 h / tissue uptake at 1.5 h: male, C57BL/6, mouse, in vivo, iv, 2 MBq, total radioactivity, Biodistribution, healthy male C57BL/6 mice, penile vein injection, gamma counter, mean of n = 3; for tissue uptake at 0.5 h: 30 min; for tissue uptake at 1 h: 60 min; for tissue uptake at 1.5 h: 90 min", "description": "All murine experiments were approved by the Animal Care and Use Committee of the University of Groningen under license protocol number 2114768-01-001. In vivo biodistribution was performed in male C57BL/6 mice (age 8 weeks, 25 g). Per tracer, the animals were divided in three groups based on the tracer distribution times (30 min, 60 min, and 90 min). […] Each experimental arm (i.e. time point) consisted of three animals. […] Tracer was administered at t = 0 via penile vein injection (2.0 ± 0.9 MBq in 100 µL 0.9% saline solution, Supplemental Table 2). After tracer administration, the animals were transferred to a Siemens Focus 220 microPET small animal scanner (Siemens, Munich, Germany) and scanned for the designated time, followed by a transmission scan of 10 min for attenuation correction. PET data were normalized and corrected for decay, after which the PET data were reconstructed using OSEM2D-Z1-SC-256. The PET data frames used for reconstruction were: 6 × 10 s, 4 × 30 s, 2 × 60 s, 120 s, 180 s, 4 × 300 s, 3 × 600 s, 1200 s or until the designated scan time was reached, taking into account a 10-min transmission scan following the emission scan. Next, animals were terminated, and organs harvested to assay biodistribution in a calibrated gamma counter (Wizard2, Perkin Elmer, Waltham, United States)."}, "Gram-positive bacteria": {"test_system": "Gram-positive bacteria", "experiment": "Tracer binding to test panel of clinically relevant bacteria, Gram-positive", "parameters": "species or system C. acnes, E. faecalis, S. aureus, S. capitis, S. epidermidis", "settings": "summary table", "description": "Clinical isolates of E. cloacae, S. capitis, S. aureus, as well as type strains of E. coli, E. faecalis, K. pneumoniae, P. aeruginosa and S. epidermidis were grown under aerobic conditions in brain heart infusion broth. A clinical isolate of the anaerobic bacterium C. acnes was grown on plate in an anaerobic chamber, and subsequently cultured in liquid medium with minimal headspace. Samples from fresh bacterial cultures were normalized to an OD600 of 1.0, fixed in PBS with 0.5% paraformaldehyde (PFA) for 10 min at room temperature, and resuspended in 1 mL sterile PBS. The fixated bacteria were incubated with tracer (133 kBq per mL, 42.8 pg and 0.6 pg of [^18F]BODIPY-FL-vancomycin and [^18F]PQ-VE1-vancomycin, respectively) and washed twice with sterile PBS. […] Measurements were corrected for background and decay. Results are reported as percentage of the total tracer added."}},
  "data": [
    {"smiles": "CN[C@H](CC(C)C)C(=O)N[C@H]1C(=O)N[C@@H](CC(N)=O)C(=O)N[C@H]2C(=O)N[C@H]3C(=O)N[C@H](C(=O)N[C@H](C(=O)O)c4cc(O)cc(O)c4-c4cc3ccc4O)[C@H](O)c3ccc(c(Cl)c3)Oc3cc2cc(c3O[C@@H]2O[C@H](CO)[C@@H](O)[C@H](O)[C@H]2O[C@H]2C[C@](C)(NC(=O)c3ccc4c5c(c6ccccc6c4c3)OCC(OCCF)O5)[C@H](O)[C@H](C)O2)Oc2ccc(cc2Cl)[C@H]1O", "note": "(stereo partly shown) [[^18F]PQ-VE1-vancomycin]", "values": [
      {"measurement": "Stability", "setting": "[1]", "value": "Stable in vitro and in vivo up to 2 h."},
      {"measurement": "LogD7.4", "setting": "[2]", "value": "-0.51 ± 0.07 (n = 9)"},
      {"measurement": "Crossing of the blood-brain barrier (BBB)", "setting": "[3]; healthy mice, intravenous injection", "value": "no substantial signal was observed in the brain"},
      {"measurement": "Accumulation", "setting": "[3]; healthy mice, summary table", "value": "Accumulation in spleen, liver and lungs"},
      {"measurement": "Clearance", "setting": "[3]; healthy mice, summary table", "value": "Slow renal clearance"},
      {"measurement": "Muscle uptake", "setting": "[3]; healthy mice, summary table", "value": "Low muscle uptake"},
      {"measurement": "tissue uptake at 0.5 h", "setting": "[3]; Bladder", "value": 3.12, "unit": "%ID/g"},
      {"measurement": "tissue uptake at 1 h", "setting": "[3]; Bladder", "value": 3.83, "unit": "%ID/g"},
      {"measurement": "tissue uptake at 1.5 h", "setting": "[3]; Bladder", "value": 3.73, "unit": "%ID/g"},
      {"measurement": "tissue uptake at 0.5 h", "setting": "[3]; Bone", "value": 1.14, "unit": "%ID/g"},
      {"measurement": "tissue uptake at 1 h", "setting": "[3]; Bone", "value": 1.34, "unit": "%ID/g"},
      {"measurement": "tissue uptake at 1.5 h", "setting": "[3]; Bone", "value": 0.75, "unit": "%ID/g"},
      {"measurement": "tissue uptake at 0.5 h", "setting": "[3]; Brain", "value": 0.14, "unit": "%ID/g"},
      {"measurement": "tissue uptake at 1 h", "setting": "[3]; Brain", "value": 0.14, "unit": "%ID/g"},
      {"measurement": "tissue uptake at 1.5 h", "setting": "[3]; Brain", "value": 0.17, "unit": "%ID/g"},
      {"measurement": "tissue uptake at 0.5 h", "setting": "[3]; Fat", "value": 0.81, "unit": "%ID/g"},
      {"measurement": "tissue uptake at 1 h", "setting": "[3]; Fat", "value": 0.79, "unit": "%ID/g"},
      {"measurement": "tissue uptake at 1.5 h", "setting": "[3]; Fat", "value": 0.55, "unit": "%ID/g"},
      {"measurement": "tissue uptake at 0.5 h", "setting": "[3]; Heart", "value": 3.54, "unit": "%ID/g"},
      {"measurement": "tissue uptake at 1 h", "setting": "[3]; Heart", "value": 2.6, "unit": "%ID/g"},
      {"measurement": "tissue uptake at 1.5 h", "setting": "[3]; Heart", "value": 1.82, "unit": "%ID/g"},
      {"measurement": "tissue uptake at 0.5 h", "setting": "[3]; Kidneys", "value": 3.37, "unit": "%ID/g"},
      {"measurement": "tissue uptake at 1 h", "setting": "[3]; Kidneys", "value": 2.73, "unit": "%ID/g"},
      {"measurement": "tissue uptake at 1.5 h", "setting": "[3]; Kidneys", "value": 2.04, "unit": "%ID/g"},
      {"measurement": "tissue uptake at 0.5 h", "setting": "[3]; Large intestine", "value": 2.28, "unit": "%ID/g"},
      {"measurement": "tissue uptake at 1 h", "setting": "[3]; Large intestine", "value": 1.81, "unit": "%ID/g"},
      {"measurement": "tissue uptake at 1.5 h", "setting": "[3]; Large intestine", "value": 1.98, "unit": "%ID/g"},
      {"measurement": "tissue uptake at 0.5 h", "setting": "[3]; Liver", "value": 10.5, "unit": "%ID/g"},
      {"measurement": "tissue uptake at 1 h", "setting": "[3]; Liver", "value": 9.33, "unit": "%ID/g"},
      {"measurement": "tissue uptake at 1.5 h", "setting": "[3]; Liver", "value": 7.72, "unit": "%ID/g"},
      {"measurement": "tissue uptake at 0.5 h", "setting": "[3]; Lungs", "value": 4.71, "unit": "%ID/g"},
      {"measurement": "tissue uptake at 1 h", "setting": "[3]; Lungs", "value": 3.8, "unit": "%ID/g"},
      {"measurement": "tissue uptake at 1.5 h", "setting": "[3]; Lungs", "value": 3.21, "unit": "%ID/g"},
      {"measurement": "tissue uptake at 0.5 h", "setting": "[3]; Muscle", "value": 0.86, "unit": "%ID/g"},
      {"measurement": "tissue uptake at 1 h", "setting": "[3]; Muscle", "value": 0.85, "unit": "%ID/g"},
      {"measurement": "tissue uptake at 1.5 h", "setting": "[3]; Muscle", "value": 0.6, "unit": "%ID/g"},
      {"measurement": "tissue uptake at 0.5 h", "setting": "[3]; Plasma", "value": 6.12, "unit": "%ID/g"},
      {"measurement": "tissue uptake at 1 h", "setting": "[3]; Plasma", "value": 4.47, "unit": "%ID/g"},
      {"measurement": "tissue uptake at 1.5 h", "setting": "[3]; Plasma", "value": 2.88, "unit": "%ID/g"},
      {"measurement": "tissue uptake at 0.5 h", "setting": "[3]; Small intestine", "value": 2.99, "unit": "%ID/g"},
      {"measurement": "tissue uptake at 1 h", "setting": "[3]; Small intestine", "value": 2.19, "unit": "%ID/g"},
      {"measurement": "tissue uptake at 1.5 h", "setting": "[3]; Small intestine", "value": 1.79, "unit": "%ID/g"},
      {"measurement": "tissue uptake at 0.5 h", "setting": "[3]; Spleen", "value": 7.89, "unit": "%ID/g"},
      {"measurement": "tissue uptake at 1 h", "setting": "[3]; Spleen", "value": 11.5, "unit": "%ID/g"},
      {"measurement": "tissue uptake at 1.5 h", "setting": "[3]; Spleen", "value": 8.39, "unit": "%ID/g"},
      {"measurement": "tissue uptake at 0.5 h", "setting": "[3]; Stomach", "value": 2.28, "unit": "%ID/g"},
      {"measurement": "tissue uptake at 1 h", "setting": "[3]; Stomach", "value": 2.45, "unit": "%ID/g"},
      {"measurement": "tissue uptake at 1.5 h", "setting": "[3]; Stomach", "value": 1.92, "unit": "%ID/g"},
      {"measurement": "tissue uptake at 0.5 h", "setting": "[3]; Whole blood", "value": 3.71, "unit": "%ID/g"},
      {"measurement": "tissue uptake at 1 h", "setting": "[3]; Whole blood", "value": 2.56, "unit": "%ID/g"},
      {"measurement": "tissue uptake at 1.5 h", "setting": "[3]; Whole blood", "value": 1.86, "unit": "%ID/g"},
      {"measurement": "Binding to Gram-positive bacteria in vitro", "setting": "Gram-positive bacteria", "value": "Binding to Gram-positive bacteria in vitro"}
    ]}
  ]
}
